# Assay results from publication PMC5768779.
# Test system: USP48 (isoform 1)
# Assay: EMSA
# Conditions: 50 nM NCP, estimated from first distinct shift, higher species above 4 uM, EMSA: 50 nM NCP, native gel, SPR: immobilized nucleosomes, 10 successive USP48 injections, one-phase binding fit, binding buffer, pH and temperature not in …
Substance,"Kd (histone H2A multi-monoubiquitinated at the C-terminal BRCA1 site (K125/K127/K129), DNA unmodified) [nM]",Kd [nM]
"NCP H2A-BRCA1ub (multi-monoubiquitinated, Widom 601, 147 bp)",1000,–
"NCP unmodified (Widom 601, 147 bp)",–,1000
